The RNAGym collection of RNA variant scans (doi:10.1093/nar/gkz1192)

B1: CPEB3 Ribozyme (parent)
chain: UAACAGGGGGCCACAGCAGAAGCGUUCACGUCGCAGCCCCUGUCAGAUUCUGGUGAAUCUGCGAAUUCUGCUGUAUAUCUC

Variants of: B1
Assay: self-cleavage, relative activity (ratio to wild type); higher = more cleavage; in vitro, sequencing
Method in brief: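 Relative activity compares each variant's cleaved/total read fraction with that of the unmutated ribozyme. To get these fractions, barcoded CPEB3 ribozyme libraries from rounds of error-prone PCR were transcribed with T7 RNA polymerase for 5 hours at 37°C and then given 15 min of DNase I treatment before EDTA was added. The RNAs were reverse transcribed with template switching and sequenced on Illumina, and DNA sequencing linked barcodes to variants. A minimum of 5 reads applied, and three batches were averaged.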

Row | Variant | self-cleavage
1 | A3G C23G | 0.33
2 | A2U U72C | 1.11
3 | A2U U72A | 0.67
4 | A3G A21U | 0.49
5 | A3G A21G | 0.73
6 | A2U A20G | 0.69
7 | A2U A20C | 0.32
8 | A2U A20U | 0.41
9 | A3C U58C | 0.4
10 | A3C U58A | 0.5
11 | A3C U58G | 0.25
12 | A3C U74A | 1.14
13 | A2G U58C | 0.25
14 | A2G U51A | 0.64
15 | A2G U51G | 0.79
16 | A2G U51C | 0.34
17 | A2U | 0.96
18 | A2U A21G | 0.56
19 | A2U A21U | 0.29
20 | A2U G10U | 0.29
21 | A2U G10A | 0.26

Row | Variant | self-cleavage
22 | A2U C44A | 0.24
23 | A3G C34G | 0.43
24 | A3G C34U | 0.25
25 | A3G C34A | 0.2
26 | A2U C37A | 0.16
27 | A3G A65G | 0.55
28 | A3G A65U | 0.25
29 | A3G A64U | 0.45
30 | A3G A64G | 0.92
31 | A2U G19A | 0.29
32 | A2G G30A | 0.39
33 | A2G G30U | 0.69
34 | A2U A64G | 0.83
35 | A2U A64U | 0.28
36 | A3C U60C | 0.83
37 | A2G G24A | 0.3
38 | A3C U51C | 1.12
39 | A3C U51A | 1.19
40 | A2U G24U | 0.34
41 | A2U G24A | 0.3
42 | A3C U41C | 1.02

Row | Variant | self-cleavage
43 | A3C U41G | 0.56
44 | A3C U41A | 0.24
45 | A3G A5C | 0.71
46 | A3G A5G | 0.76
47 | A3G A5U | 1.04
48 | A2U U80C | 1.09
49 | A2U U80A | 1.14
50 | A2U U80G | 1.06
51 | A3G A13U | 1.02
52 | A3G A13C | 1.02
53 | A3G A13G | 0.95
54 | A3C U67C | 0.33
55 | A2G C27U | 0.4
56 | A3C U76A | 1
57 | A2G C37U | 0.66
58 | A2G C37A | 0.27
59 | A2G U43A | 1.02
60 | A2G U43C | 0.34
61 | A3C C44G | 0.84
62 | A2U U69A | 0.52
63 | A3C G7U | 0.39

Row | Variant | self-cleavage
64 | A2G U78C | 0.58
65 | A2G U78A | 0.75
66 | A3C U69A | 1.08
67 | A2U G22A | 0.22
68 | A2G U26A | 0.53
69 | A2G U26G | 0.18
70 | A2G U26C | 0.4
71 | A3C A57G | 1.19
72 | A2G C59G | 0.24
73 | A2G C59A | 0.23
74 | A2G G63U | 0.62
75 | A2U U25A | 0.09
76 | A2U U25C | 0.37
77 | A3C A64G | 1.17
78 | A3C C81G | 1.19
79 | A2U G9A | 0.15
80 | A2U G9C | 0.45
81 | A2G U49C | 0.32
82 | A2G U49A | 0.42
83 | A2G U80C | 0.69
